From patent publication US20140249083A1 (THERATECHNOLOGIES, published 2014) come the findings set out here.

The target of this experiment is T1, human GRF receptor (human, UniProt Q02643 23-423).
T1 sequence (looked up): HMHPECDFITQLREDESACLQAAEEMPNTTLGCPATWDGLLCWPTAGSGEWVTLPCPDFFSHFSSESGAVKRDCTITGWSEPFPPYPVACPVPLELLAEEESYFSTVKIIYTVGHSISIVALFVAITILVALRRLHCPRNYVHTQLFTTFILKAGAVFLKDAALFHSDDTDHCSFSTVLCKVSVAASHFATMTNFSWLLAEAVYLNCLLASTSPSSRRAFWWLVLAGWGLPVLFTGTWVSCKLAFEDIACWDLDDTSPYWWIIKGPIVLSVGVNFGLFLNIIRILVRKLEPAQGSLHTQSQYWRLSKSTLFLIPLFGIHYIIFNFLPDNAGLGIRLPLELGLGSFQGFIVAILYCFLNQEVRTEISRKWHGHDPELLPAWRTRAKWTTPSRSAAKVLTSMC
Description: cell-based or functional assay.

*1 amine or outer side, *2 acyl side, *3 side chain or, on linkers, in order; H or OH if unused. Primed or numbered codes have the meaning given here. [ ]: non-standard residue; d: D form. The star is where a group is joined. βAsp = O=C(O)[C@H](CC(=O)[*:2])N[*:1]; Met(O) = CS(=O)CC[C@H](N)C(=O)O; Hexenoyl(3E) = CC/C=C/CC(=O)*; Asu′ = not defined here

For {Hexenoyl(3E)}-YADAIFTNSYRKVLGQLSARKLLQDI[Met(O)]SRQQGESNQERGARARL-NH2 [N-Hex-hGRF[1-44]Met[O]27 amide], the “EC50 (nM), alkaline phosphatase reporter gene assay” value (“EC50 (nM)” for short) is 0.16 nM.

For {Hexenoyl(3E)}-YADAIFTNSYRKVLGQLSARKLLQDIMSRQQGESNQERGARARL-NH2 [[trans-3-hexenoyl]hGHRH (1-44) amide], the “EC50 (nM)” value amounted to 0.06 nM.

As to {Hexenoyl(3E)}-YA[Asu′]AIFTNSYRKVLGQLSARKLLQDIMSRQQGESNQERGARARL-NH2 (reading uncertain) [TH9507 cyclic form at Asp^3], the “EC50 (nM)” value amounted to 0.2 nM; the “EMAX (%), alkaline phosphatase reporter gene assay” value was 95.7%; the “SNR (signal to noise ratio), alkaline phosphatase reporter gene assay” value stood at 21.3.

As to {Hexenoyl(3E)}-YADAIFTDSYRKVLGQLSARKLLQDIMSRQQGESNQERGARARL-NH2 [TH9507 Asp8], the EC50 (nM), alkaline phosphatase reporter gene assay was 0.08 nM; the EMAX (%), alkaline phosphatase reporter gene assay worked out at 114%; the SNR (signal to noise ratio), alkaline phosphatase reporter gene assay was found to be 25.3.

As to {Hexenoyl(3E)}-YA[βAsp]AIFTNSYRKVLGQLSARKLLQDIMSRQQGESNQERGARARL-NH2 [TH9507 beta-Asp3], the “EC50 (nM)” value was found to be 4.24 nM and the “EMAX (%), alkaline phosphatase reporter gene assay” value stood at 116%.

On to {Hexenoyl(3E)}-YADAIFT[βAsp]SYRKVLGQLSARKLLQDIMSRQQGESNQERGARARL-NH2 [TH9507 beta-Asp8], for which the EC50 (nM), alkaline phosphatase reporter gene assay worked out at 30 nM; the EC50 fold higher than TH9507, reporter gene assay is 500 fold; the EMAX (%), alkaline phosphatase reporter gene assay amounted to 120%; the SNR (signal to noise ratio), alkaline phosphatase reporter gene assay came out at 26.9.
